Assay results taken from article PMC7176140, “Thermal stability analyses of human PERIOD-2 C-terminal domain using dynamic light scattering and circular dichroism” (PLoS ONE, 2020).

Target: the molecule itself
Assay: SEC; analytical Superdex 200 Increase 10/300 GL; hPER2c dimer fraction treated with 20mM DTT for 36hrs; buffer 20mM Tris-base pH7.5, 50mM NaCl, 20mM DTT; calibrated with molecular weight standards

B1: human PERIOD-2 C-terminal domain (recombinant hPER2c, residues 1130 to 1252) (domain or fragment, UniProt O15055 1130-1252, looked up)
chain: CVLQDPIWLLMADADSSVMMTYQLPSRNLEAVLKEDREKLKLLQKLQPRFTESQKQELREVHQWMQTGGLPAAIDVAECVYCENKEKGNICIPYEEDIPSLGLSEVSDTKEDENGSPLNHRIE
notes: C-terminal domain of human PER2 (PERIOD-2), residues 1130 to 1252; Elutes from SEC as an aggregated form, 40mer, 20mer and dimer; The authors conclude that disulfide bonds stabilise the dimer; No tag removal is described; also called human PER2c; not shown: His tag (from the vector pCold I)
stoichiometry N: 6
